Consider 40 sequences from the nanobody polyreactivity screen of Harvey et al. (2022).

A short description of this data set: yeast display, Sf9 membrane polyspecificity reagent, FACS + sequencing; frameworks hold sequencing errors. Put shortly:
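Synthetic nanobody libraries on Saccharomyces cerevisiae BJ5465 were galactose-induced for 36–48 hours, stained 1 hour at 4 °C with 10% biotinylated, detergent-solubilized Sf9 membrane reagent and enriched on streptavidin microbeads. FACS then separated cells into low and high (top ~1%) gates by anti-HA (expression) and streptavidin (reagent binding) fluorescence. Genes were colony-PCR amplified, MiSeq 2 × 250 sequenced and CDR-length filtered. A clone's polyreactivity label is that of its gate of origin.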
Consider “QVQLVESGGGLVQAGGSLRLSCAASGSIFGNNAMGWYRQAPGKERELVATISYSGDSTYYADSVKGRFTISRDNAKNTVYLQMNSLKPEDTAVYYCAKQSDWVYKDRAYDYWGQGTQVTVSS”, for which the “polyreactivity (PSR sort gate)” value is “low polyreactivity”.

As to “QVQLVESGGGLVQAGGSLRLSCAASGSIFGPNAMGWYRQAPGKERELVAAITNGGRTNYADSVKGRFTISRDNAKNTVYLQMNSLKPEDTAVYYCNKARYGTDDYDYWGQGTQVTVSS”, the “polyreactivity (PSR sort gate)” value was “low polyreactivity”.

As for “QVQLVESGGGLVQAGGSLRLSCAASGSIFGPNAMGWYRQAPGKESELVAAITLSGGSTYYADSVKGRFTISRDNAKNTVYLQMYSLKPEDTAVYYCNADLLPADAPLWVTGGDYWGQGTQVTVTS”, the “polyreactivity (PSR sort gate)” value is “low polyreactivity”.

Turning to “QVQLVESGGGLVQAGGSLRLSCAASGSIFGPNSMGWYRQAPGKERELVAAISWTGGRTYYADSVKGRFTISRDNAKNTVYLQMNSLKPEDTAVYYCAVKGHPWGQGTQVTVSS”, the “polyreactivity (PSR sort gate)” value was “low polyreactivity”.

Regarding “QVQLVESGGGLVQAGGSLRLSCAASGSIFGPYAMGWYRQAPGKDRELVAAISLGGGSTSYADSVKGRFTISRDNAKNTVYIQMNSLKPEDTAVYYCNAEYYSGPYGYNGFDYWGQGTQVTVSS”, the “polyreactivity (PSR sort gate)” value is listed as “low polyreactivity”.

For “QVQLVESGGGLVQAGGSLRLSCAASGSIFGPYAMGWYRQAPGKERELVAAITWTGGRTYYADSVKGRFTISRDNAKNTVYLQMNSLKPVDTAVYDCAADYSPSTWYLYYTLYYYWGEGTQVTVSS”, the “polyreactivity (PSR sort gate)” value is on record as “low polyreactivity”.

Regarding “QVQLVESGGGLVQAGGSLRLSCAASGSIFGPYAMGWYRQAPGKERELVARITLSAGNTYYADSVKGRFTISRDNAKNTVYLQMNSLKPEDTAVYYCAAKVYSKYWFVGNYWGQGRQVTVSS”, the “polyreactivity (PSR sort gate)” value is given as “high polyreactivity”.

Consider “QVQLVESGGGLVQAGGSLRLSCAASGSIFGPYVMGWYRQAPGKEREFVAAIRGSGGSTYYADSVKGRFTISRDNAKNTVYLQMNSLKPEDTAVYYCNARLKYTLYYYWGQGTQVTVSS”, for which the “polyreactivity (PSR sort gate)” value was “high polyreactivity”.

For “QVQLVESGGGLVQAGGSLRLSCAASGSIFGQYAMGCYRQAPGKERELVATISSSGGSTYYADSVKGRFTISRDNAKNTVYLQMNSLKPEDTAVYYCAADWTLDPSYGYYADDYWGQGTQVTVSS”, the “polyreactivity (PSR sort gate)” value is “low polyreactivity”.

On to “QVQLVESGGGLVQAGGSLRLSCAASGSIFGRNAMAWYRQAPGKERELVADIWNGGSTYYADSVNGRFTNSRDNAKNTVYFLMNSLKPEDTAVSYCNADADDDGRFGGYMKYDYWGQGTQVTVSS”, for which the “polyreactivity (PSR sort gate)” value is “low polyreactivity”.

Consider “QVQLVESGGGLVQAGGSLRLSCAASGSIFGRNAMGWSRQAPGNERELVARISYIGGSTYYADSVKARFTISRDNAKTTVYLQMNSLKPEDTAVYYCAKRYGFRYKRMDYWGQGTQVTVSS”, for which the “polyreactivity (PSR sort gate)” value is on record as “low polyreactivity”.

As for “QVQLVESGGGLVQAGGSLRLSCAASGSIFGRNAMGWYRQAPGKERELVAAISTSGGSTYYADSVKGRFTISRDNAKNTVYLQMNSLKPEDTAVYYCNAEQYTQLDVNLYDYWGQGTQVTVSS”, the “polyreactivity (PSR sort gate)” value is listed as “low polyreactivity”.

“QVQLVESGGGLVQAGGSLRLSCAASGSIFGRNDMGWYRQAPGKERELVARITRGGSTNYADSVKGRFTISRDNAKNTVYLQMNSLKPEDTAVYYCAAGARQYRGVPDRYGYWGQGTQVTVSS”: the “polyreactivity (PSR sort gate)” value was “low polyreactivity”.

Take “QVQLVESGGGLVQAGGSLRLSCAASGSIFGRYAMGWYRPAPGKDRELVAAISDDSSTNYADSVKGRFTISRDNAKHNDYLQMHSLKPEVTAVYYCNADSWRYVAEGLWREYDYWGQGTQVTVSS”: the “polyreactivity (PSR sort gate)” value was “low polyreactivity”.

On to “QVQLVESGGGLVQAGGSLRLSCAASGSIFGRYAMGWYRQAPGKERELLAALTYRGGTTYYADSVKGRFTISRDNAKNTVYLQMNSLKPEDTAVYYCAAEGTWYYKYGYFAYYYWGQGTQVTVSS”, for which the “polyreactivity (PSR sort gate)” value was “low polyreactivity”.

For “QVQLVESGGGLVQAGGSLRLSCAASGSIFGRYAMGWYRQAPGKERELVAAISSSGGRTYYADSVKGRFTISRDNAKNTVYLKMNSLKPEDTAVYYCNKDWYYLIPGYNYWGQGTQVTVSS”, the “polyreactivity (PSR sort gate)” value is on record as “high polyreactivity”.

Take “QVQLVESGGGLVQAGGSLRLSCAASGSIFGRYAMGWYRQAPGKERELVANITSGDSTNYADSVKGRFTISRDNAKNTVYLQMNSRKPEDTAVYYCAAYRIGQYDYWGQGTQVTVSS”: the “polyreactivity (PSR sort gate)” value was “high polyreactivity”.

“QVQLVESGGGLVQAGGSLRLSCAASGSIFGRYAMGWYRQAPGKERELVASISRRCGSTYYADSVKGRFTISRDNAKNTVYLQMNRLKPEDTAVYDCNVAPWSASSANLEDYWGQGNQVTVSS”: the “polyreactivity (PSR sort gate)” value is reported as “high polyreactivity”.

For “QVQLVESGGGLVQAGGSLRLSCAASGSIFGRYAMGWYRQAPGTEREGVAAISRSCDNTSYADSVKGRFTISRDTAKNTVYLQMNSLKPEDSAVYYCNADRPFSLGQRKYVDFDEPYNYWGQGTQVTVSS”, the “polyreactivity (PSR sort gate)” value was “low polyreactivity”.

Regarding “QVQLVESGGGLVQAGGSLRLSCAASGSIFGRYAMGWYRQARGKERELVAAISWSGGSTYYADSVKGRFTISRDNAKNTVYLQMNSLKPEDTAVYYCAANYKYAYEYWGQGTQVTVSS”, the “polyreactivity (PSR sort gate)” value is “high polyreactivity”.

“QVQLVESGGGLVQAGGSLRLSCAASGSIFGRYVMGWYRQAPGTDRELVAAISGSGTSTYYADSVKGRFTISRDNAKNTVYLQMNSLKPEDTAVYYCAARDIKSSHDYDYWGQGTQVTVSS”: the “polyreactivity (PSR sort gate)” value is “low polyreactivity”.

Turning to “QVQLVESGGGLVQAGGSLRLSCAASGSIFGSNAMGWYRQAPGKERELVAAITSRGGSTYYADSVKGRFTISRDNAKNTVYLQMNSLKPEDTAVYYCAADYQSVGGAEYDYWGQGTQVTVSS”, the “polyreactivity (PSR sort gate)” value is recorded as “high polyreactivity”.

Turning to “QVQLVESGGGLVQAGGSLRLSCAASGSIFGSNTMGWYRQAPGKEREFVAAISFSGGSTYYADSVKGRFTISRDNAKNTVYLQLNSLKPEDTAVYYWAARQSRVGTSFYYSRRDYWGQGTEVTVSS”, the “polyreactivity (PSR sort gate)” value is “high polyreactivity”.

Consider “QVQLVESGGGLVQAGGSLRLSCAASGSIFGSYAMGWNRQAPGKDREFVAGIDQSGSSTYYADSVKGRFTISRDNAKNTVYLQMNSLKPEDTAVYYCAARHRYRTYKMYYWGQGTQVTVSS”, for which the “polyreactivity (PSR sort gate)” value is on record as “high polyreactivity”.

With “QVQLVESGGGLVQAGGSLRLSCAASGSIFGSYAMGWYRQAPGKARELVAAISQSGSSTYYADSVKGRFTISRDNAKNTVSLQMNSLKPEDTAVYYCAADWRHLRYRGGLQYDYWGQGTQVTVSS”, the “polyreactivity (PSR sort gate)” value is “high polyreactivity”.

Turning to “QVQLVESGGGLVQAGGSLRLSCAASGSIFGSYAMGWYRQAPGKERELVAGITRRSGSTYYADSVKGRFTISRDNAKNTVYLQMNSLKPEDTAVYYCAADTWFGMDYWGQGTQVTVSS”, the “polyreactivity (PSR sort gate)” value was “high polyreactivity”.

Regarding “QVQLVESGGGLVQAGGSLRLSCAASGSIFGSYAMGWYRQAPGKERELVAGITRRSGSTYYADSVKGRFTISRDNAKNTVYLQMNSLKPEDTAVYYCNAQAYSRRWDARGDYWGQGTQVTVSS”, the “polyreactivity (PSR sort gate)” value was “high polyreactivity”.

“QVQLVESGGGLVQAGGSLRLSCAASGSIFGSYAMGWYRQAPGNERELVAAISKSGGNTYYADSVKGRFTISRDNAKNTVYLQMNSLKPEDTAVYYCAARYRFLRPKVNYWGQGTQVTVSS”: the “polyreactivity (PSR sort gate)” value is listed as “high polyreactivity”.

For “QVQLVESGGGLVQAGGSLRLSCAASGSIFGSYARGRYRQAPVKERELVAGITYRGSSTYYADSVKGRFTISRDKAKNTVYLQMNSLKPEDTAVYYCAADPVFDEYDYWGQGTQVTVSS”, the “polyreactivity (PSR sort gate)” value is recorded as “low polyreactivity”.

With “QVQLVESGGGLVQAGGSLRLSCAASGSIFGSYTMGWYRQAPGKERELVAAITSSGGGTYYADSVKGRFTISRDNAKNTVYLQMNSLKPEDTAVYYCAAEYRDGYRFSYDYWGQGTQVTVSS”, the “polyreactivity (PSR sort gate)” value is “low polyreactivity”.

Consider “QVQLVESGGGLVQAGGSLRLSCAASGSIFGTNAMGWYRQAPGKERELVAAIDGGSTTYYADSVKGRFTISRDNAKNTVYLQMNSLKPEDTAVYYCAADGTRYLNYEGYAGYEYWGQGTQGTVSS”, for which the “polyreactivity (PSR sort gate)” value is given as “low polyreactivity”.

As to “QVQLVESGGGLVQAGGSLRLSCAASGSIFGTNAMGWYRQAPGKERELVAAISTSADITYYADSVKGRFTISRDNAKNTVYLQMNSLKPEDTAVYYCNKRKWPTFTYAMNYWGQGTQVTVSS”, the “polyreactivity (PSR sort gate)” value is “low polyreactivity”.

As for “QVQLVESGGGLVQAGGSLRLSCAASGSIFGTYAMGWYRQAPGKERELVAAISFIGGDTYYADSVKGRFTISRDNAKNTVYLQMNSLKPEDTAVYYCAADRELSGYGGEYWGQGTQVTVSS”, the “polyreactivity (PSR sort gate)” value is “low polyreactivity”.

“QVQLVESGGGLVQAGGSLRLSCAASGSIFGVNAMGWYRQAHGKERELVASITGGDSTNYADSVKGRFTISRDNAKNTVYLLMNSLKPEDTAVYYCAKDHYYRYEEGDYWGQGTQVTVSS”: the “polyreactivity (PSR sort gate)” value is on record as “low polyreactivity”.

For “QVQLVESGGGLVQAGGSLRLSCAASGSIFGVNAMGWYRQAPGKERELVAAISSGGSTNYADSVKGRFTISRDNAKNTVYLQMNSLKPEDTAVYYCAADTKTRSNYDYWGQGTQVTVSS”, the “polyreactivity (PSR sort gate)” value was “low polyreactivity”.

In the case of “QVQLVESGGGLVQAGGSLRLSCAASGSIFGVNDMGWYRQAPGKERELVAGISSGGSTYYADSVKGRFTISRDNAKNTVYLQMNSLKPEDTAVYYCAKPYYDGRTHFDSWGQGTQVTVSS”, the “polyreactivity (PSR sort gate)” value is listed as “low polyreactivity”.

Consider “QVQLVESGGGLVQAGGSLRLSCAASGSIFGVYAMGWYRQAPGKERELVARISGSSGSTRYSDSVKGRFTISRDNAKNTVYLQMNSLKPEDTAVYYCAARAIFRQGDRIYDSWGQGTQVTVSS”, for which the “polyreactivity (PSR sort gate)” value is “high polyreactivity”.

As to “QVQLVESGGGLVQAGGSLRLSCAASGSIFGVYAMGWYRQAPGKERELVASITSGSSTNYADSVKGRFTISRDNAKNTVYLQMNSLKPEDTAVYYCAAGRTSRSRRYYRFFYAGDYWGQGTQVTVSS”, the “polyreactivity (PSR sort gate)” value is listed as “low polyreactivity”.

Turning to “QVQLVESGGGLVQAGGSLRLSCAASGSIFGVYAMGWYRQAPGQERELVAVITWSDGGTYYADSVKGRFTISRDNAKNTVYLQMNSLKPEDTAVYYCAKERYDYSYDYWGQGTQVTVSS”, the “polyreactivity (PSR sort gate)” value is given as “high polyreactivity”.

Turning to “QVQLVESGGGLVQAGGSLRLSCAASGSIFGWYAMGWYRQAPGKERELVAAISSSDGSTYYADSVKGRFTISRDNAKNTVYLQMNSLTPEDTAVYYCAKVYIRQNLAPYGYWGQGTQVTVSS”, the “polyreactivity (PSR sort gate)” value is recorded as “low polyreactivity”.
